Experimental data: the supplement of paper PMC9233669
Fewer inactive variants are shown than the library holds.

Columns and labels:
biotinyl-Phe-oxazolone = test: self-aminoacylation, catalytic enhancement (BFO) (fold over background); higher = more active; k-Seq, kA / k0A0; sequences stand for … in GGGAAUGGAUCCACAUCUACGAAUUC…UUCACUGCAGACUUGACGAAGCUG
Method in brief: (§1)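 The uncatalyzed rate is the low-activity peak of a bimodal Gaussian fit, and catalytic enhancement is median kA divided by it. The kA values came from pseudo-first-order fits, with 1000 bootstraps, of per-sequence fraction reacted measured by streptavidin capture, triplicate qPCR and Illumina sequencing. Mutagenized RNA pools with a 21-nt variable region (0.43 μM) were reacted with each biotinyl-aminoacyl-oxazolone at 2–1250 μM in 50 μL HEPES/NaCl/KCl/MgCl2/CaCl2 buffer with 5% acetonitrile, pH 6.9–7.0, for 90 minutes at room temperature.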

biotinyl-Ile-oxazolone = test: self-aminoacylation, catalytic enhancement (BIO) (fold over background); higher = more active; k-Seq, kA / k0A0; sequences stand for … in GGGAAUGGAUCCACAUCUACGAAUUC…UUCACUGCAGACUUGACGAAGCUG
Method in brief: as §1

biotinyl-Met-oxazolone = test: self-aminoacylation, catalytic enhancement (BMO) (fold over background); higher = more active; k-Seq, kA / k0A0; sequences stand for … in GGGAAUGGAUCCACAUCUACGAAUUC…UUCACUGCAGACUUGACGAAGCUG
Method in brief: as §1

biotinyl-Val-oxazolone = test: self-aminoacylation, catalytic enhancement (BVO) (fold over background); higher = more active; k-Seq, kA / k0A0; sequences stand for … in GGGAAUGGAUCCACAUCUACGAAUUC…UUCACUGCAGACUUGACGAAGCUG
Method in brief: as §1

biotinyl-Leu-oxazolone = test: self-aminoacylation, catalytic enhancement (BLO) (fold over background); higher = more active; k-Seq, kA / k0A0; sequences stand for … in GGGAAUGGAUCCACAUCUACGAAUUC…UUCACUGCAGACUUGACGAAGCUG
Method in brief: as §1

biotinyl-Trp-oxazolone = test: self-aminoacylation, catalytic enhancement (BWO) (fold over background); higher = more active; k-Seq, kA / k0A0; sequences stand for … in GGGAAUGGAUCCACAUCUACGAAUUC…UUCACUGCAGACUUGACGAAGCUG
Method in brief: as §1

Sequence	self-aminoacylation (biotinyl-Phe-oxazolone)	self-aminoacylation (biotinyl-Ile-oxazolone)	self-aminoacylation (biotinyl-Met-oxazolone)	self-aminoacylation (biotinyl-Val-oxazolone)	self-aminoacylation (biotinyl-Leu-oxazolone)	self-aminoacylation (biotinyl-Trp-oxazolone)
AUUCACCUCGGUCAUCGGUUG [Fam2.2 aminoacylation ribozyme variant]	5.88	0.923	1.07	1.07	1.25	0.911
AUUCACCUCGGUCUUCGGGUG [Fam2.2 aminoacylation ribozyme variant]	33	3.77	3.71	4.01	6.72	4.87
AUUCACCUGGAUCAUCGGGUG [Fam2.2 aminoacylation ribozyme variant]	15.1	2.55	2.39	3.08	3.12	3.31
AUUCACCUGGGUAAUCGGGUG [Fam2.2 aminoacylation ribozyme variant]	30.1	3.15	4.71	2.88	5.16	4.84
AUUCACCUGGGUCAUCCGGUG [Fam2.2 aminoacylation ribozyme variant]	75.6	7.06	11.2	7.4	13.3	9.13
AUUCACCUGGGUCAUCGGGAG [Fam2.2 aminoacylation ribozyme variant]	7.65	1.65	1.86	1.62	1.51	2.29
AUUCACCUUGAUCAUCGGGUG [Fam2.2 aminoacylation ribozyme variant]	19	2.22	3.26	2.6	3.83	4.07
AUUCACCUUGGACAUCGGGUG [Fam2.2 aminoacylation ribozyme variant]	17.1	2.51	3.51	3.24	3.37	2.97
AUUCACCUUGGCCAUCGGGUG [Fam2.2 aminoacylation ribozyme variant]	31.6	2.9	4.02	3.88	4.98	4.95
AUUCACCUUGGUCAUCGAGUG [Fam2.2 aminoacylation ribozyme variant]	8.55	2.69	3.96	2.49	4.66	3.59
AUUCACGUAGCUCAUCGGGUG [Fam2.2 aminoacylation ribozyme variant]	17.7	2.24	3.44	3.52	2.42	2.88
AUUCACGUAGGUCAUAGGGUG [Fam2.2 aminoacylation ribozyme variant]	2.23	1.67	2.17	1.92	2.36	1.97
AUUCACGUAGGUCAUCGCGUG [Fam2.2 aminoacylation ribozyme variant]	119	7.52	16	9.95	15.8	11.1
AUUCACGUAGGUCAUCGGGUA [Fam2.2 aminoacylation ribozyme variant]	21	2.9	3.16	3.72	2.95	3.66
AUUCACGUAGGUCAUCGGGUU [Fam2.2 aminoacylation ribozyme variant]	14.9	2.03	2.4	2.74	2.54	2.93
AUUCACGUAGGUCAUCUGGUG [Fam2.2 aminoacylation ribozyme variant]	31.2	3.05	5.3	3.61	5.52	4.82
AUUCACUAAGGUCAUCGGGUG [Fam2.2 aminoacylation ribozyme variant]	37.7	3.57	5.33	3.66	6.72	5.99
AUUCACUGAGGUCAUCGGGUG [Fam2.2 aminoacylation ribozyme variant]	55.7	4.51	7.22	4.37	9.09	5.64
AUUCACUUAGGUCAACGGGUG [Fam2.2 aminoacylation ribozyme variant]	21.2	2.52	3.84	2.26	4.92	3.53
AUUCACUUAGGUCAUCUGGUG [Fam2.2 aminoacylation ribozyme variant]	12.6	2.06	3.11	2.1	3.65	3.19
AUUCACUUAGGUCAUGGGGUG [Fam2.2 aminoacylation ribozyme variant]	46.2	3.61	5.58	3.31	7.09	5.74
AUUCACUUAGGUCAUUGGGUG [Fam2.2 aminoacylation ribozyme variant]	25.2	2.3	3.64	2.39	4.48	3.76
AUUCAGAUAGGUCAUCGGGUG [Fam2.2 aminoacylation ribozyme variant]	49.6	4.19	6.75	3.77	7.3	5.8
AUUCAGCAAGGUCAUCGGGUG [Fam2.2 aminoacylation ribozyme variant]	47.9	4.51	6.23	4.9	7.63	7
AUUCAGCUAGGUAAUCGGGUG [Fam2.2 aminoacylation ribozyme variant]	23.8	2.69	4.03	2.65	4.57	4.43
AUUCAGCUAGGUCAUAGGGUG [Fam2.2 aminoacylation ribozyme variant]	1.15	0.975	1.09	1.23	1.24	1.17

Sequence	self-aminoacylation (biotinyl-Phe-oxazolone)	self-aminoacylation (biotinyl-Ile-oxazolone)	self-aminoacylation (biotinyl-Met-oxazolone)	self-aminoacylation (biotinyl-Val-oxazolone)	self-aminoacylation (biotinyl-Leu-oxazolone)	self-aminoacylation (biotinyl-Trp-oxazolone)
AUUCAGCUAGGUCAUUGGGUG [Fam2.2 aminoacylation ribozyme variant]	15	2.04	2.62	2.55	2.38	3.25
AUUCAGCUAGGUCGUCGGGUG [Fam2.2 aminoacylation ribozyme variant]	13.1	2.53	3.24	2.62	3.24	3.08
AUUCAGCUAGGUGAUCGGGUG [Fam2.2 aminoacylation ribozyme variant]	25.3	3.84	4.52	4.04	5.32	4.6
AUUCAGCUAUGUCAUCGGGUG [Fam2.2 aminoacylation ribozyme variant]	16.6	2.19	3.17	2.63	3.03	3.19
AUUCAGUUAGGUCAUCGGGUG [Fam2.2 aminoacylation ribozyme variant]	25.6	3.04	3.8	3.12	4.86	4.04
AUUCAUCUAAGUCAUCGGGUG [Fam2.2 aminoacylation ribozyme variant]	86.6	6.41	10.9	5.64	15	10.9
AUUCAUCUACGUCAUCGGGUG [Fam2.2 aminoacylation ribozyme variant]	53	3.69	6.12	3.82	8.74	7.17
AUUCAUCUAGGUCACCGGGUG [Fam2.2 aminoacylation ribozyme variant]	36.8	3.85	5.35	3.34	6.82	5.32
AUUCAUCUAGGUCAUCGGGUC [Fam2.2 aminoacylation ribozyme variant]	2.17	1.07	1.21	1.28	1.22	1.02
AUUCAUCUAGGUCAUCGGGUG [Fam2.2 aminoacylation ribozyme variant]	39.2	4.88	7.46	4.7	9.76	7.12
AUUCAUCUAGGUCGUCGGGUG [Fam2.2 aminoacylation ribozyme variant]	4.73	1.93	2.1	1.86	2.27	1.68
AUUCCCAUGGUCAUCGAGUGA [Fam2.1 aminoacylation ribozyme variant]	51.4	5.75	10.4	5.75	11.3	12.9
AUUCCCCCAGGUCAUCGGGUG [Fam2.2 aminoacylation ribozyme variant]	174	14	17.1	11.4	24.7	17.1
AUUCCCCUAGAUCAUCGGGUG [Fam2.2 aminoacylation ribozyme variant]	75.1	7.3	9.42	6.64	11.9	9.85
AUUCCCCUAGGGCAUCGGGUG [Fam2.2 aminoacylation ribozyme variant]	42.8	7.87	10.3	6.4	12.4	10.4
AUUCCCCUAGGUCACCGGGUG [Fam2.2 aminoacylation ribozyme variant]	163	13.9	20.3	13.4	26.2	21.7
AUUCCCCUAGGUCAUAGGGUG [Fam2.2 aminoacylation ribozyme variant]	17.1	3.38	4.99	3.08	6.57	4.78
AUUCCCCUAGGUCAUCGGGGG [Fam2.2 aminoacylation ribozyme variant]	51.6	8.54	8.39	10.2	13.3	13.6
AUUCCCCUAGGUCAUCGGGUC [Fam2.2 aminoacylation ribozyme variant]	22.8	4.5	4.08	5.52	5.52	4
AUUCCCCUAGGUCAUGGGGUG [Fam2.2 aminoacylation ribozyme variant]	167	11.3	19	11.1	24.7	15.8
AUUCCCCUAGGUCCUCGGGUG [Fam2.2 aminoacylation ribozyme variant]	241	19.6	26.9	17.1	37.9	24.6
AUUCCCCUAGGUCUUCGGGUG [Fam2.2 aminoacylation ribozyme variant]	127	13.7	19.3	13.9	26.7	21.8
AUUCCCCUCGUCAUCGAGUGA [Fam2.1 aminoacylation ribozyme variant]	15.8	3.49	4.49	3.46	4.4	5.17
AUUCCCCUGGCCAUCGAGUGA [Fam2.1 aminoacylation ribozyme variant]	46.6	3.34	6.17	4.87	8.45	6.48
AUUCCCCUGGGCAUCGAGUGA [Fam2.1 aminoacylation ribozyme variant]	65.9	5.22	10.8	5.1	11.1	11.6
